# Measurements reported in publication PMC10274944.
# Biological target: GST-tagged MERS-CoV papain-like protease (PLpro) (MERS-CoV) (UniProt K9N7C7)
# Test: BLI
row,Substance,Kd
1,ubiquitin variant A46F-K48E-E64Y (UbV3) (from UniProt P0CG48 1-76) (designed binder),2.77 nM
2,ubiquitin variant A46F-K48E-G75R (from UniProt P0CG48 1-76) (designed binder),11400 nM
3,ubiquitin variant A46F-K48E-E64Y-R74N-G75S (UbV5) (from UniProt P0CG48 1-76) (designed binder),1.48 nM
4,ubiquitin variant A46F-K48E (UbV2) (from UniProt P0CG48 1-76) (designed binder),220 nM
